The results in this text go back to US20110152358A1, “Compositions and Methods for Diagnosis and Treatment of Pancreatic Ductal Cancer” (priority 2008, published 2011).

What all share (assay type): cell-based, human
One data set concerns 14-3-3σ. In words: downregulation of 14-3-3σ by lentiviral shRNA in T3M4 cells (western blotting, Q-PCR). To be noted: for 14-3-3σ levels: MOI of 40. (In general: A western blot detects proteins with antibodies after separation by electrophoresis.)
Data set [1] concerns T3M4 cells. In words: in vitro wound-healing (migration) assay, shRNA infected T3M4 cells. Conditions: serum free; 24 hours; percentage change in wound area. As to the method:
To assess the motility properties, in vitro wound-healing assays or migration assays were performed. Cells were grown to confluence in 6-well tissue culture plates, serum starved overnight, and the monolayer was scratched with a 200 μL pipette tip generating two parallel wounds. The scratched wells were washed to remove cell debris and incubated for the next 24 hours in serum free media in the absence or presence 1 nmol/L EGF with or without the Src family kinase inhibitor PP2 (4-amino-5-(4-chlorophenyl)-7-(t-butyl)pyrazolo[3,4-d]pyrimidine) (Alexis, La Jolla, Calif.). To monitor cell migration, photographs were taken of each well at five marked locations under 40× magnification immediately after wounding (t0) and again 24 hours after wounding (t24), using an inverted microscope fitted with a digital camera (Nikon Diaphot 300, Nikon, Japan). The wound area of five matched pictures at t0 and t24 from each well were then measured using the ImageJ software (NIH, Bethedsa, Md.), and the percentage change in the wound area was calculated.

Data set [2] has as its system T3M4 cells. In words: cisplatinum induced apoptosis, immunoblot of cleaved PARP and cleaved caspase-3, shRNA infected T3M4 cells. Conditions: cisplatinum 10 νg/mL for 2, 6, or 24 hours. As to the method:
Sham or 14-3-3σ transfected PANC-1 cells were incubated for 24 hours in complete medium in the absence or presence of 10 μg/mL of cisplatinum. Scrambled or 14-3-3σ specific shRNA infected T3M4 cells were incubated in complete medium for 24 hours that was supplemented with 10 μg/mL cisplatinum for the initial 2 or 6 hours, or the entire 24 hours. Both floating and adherent cells were then collected and lysed in the buffer containing protease inhibitors, subjected to 10% SDS-PAGE, and immunoblotted with specific antibodies against cleaved Poly (ADP-ribose) Polymerase (PARP) and cleaved caspase-3 (Cell Signaling Technology, Danvers, Mass.).

B1: shCtrl: scrambled control shRNA not targeting any known mammalian gene, SEQ ID NO: 28 and 29 (nucleic acid)
chain 1: TACGAGCGAGGTGCCGATATTTCAAGAGAATATCGGCACCTCGCTCGTTTTTTTC
chain 2: TCGAGAAAAAAACGAGCGAGGTGCCGATATTCTCTTGAAATATCGGCACCTCGCTCGTA
Turning to B1, the 14-3-3σ levels result in the data set on 14-3-3σ is reported as “did not alter”. Moreover, the “basal motility of shRNA infected cells” value in the data set with T3M4 cells [1] was found to be 20%.

B2: sh1: lentiviral shRNA targeting 14-3-3σ, SEQ ID NO: 24 (sense) and 25 (antisense) (nucleic acid)
sense: TCGAGACAACCTGACACTGTTTCAAGAGAACAGTGTCAGGTTGTCTCGTTTTTTC
antisense: TCGAGAAAAAACGAGACAACCTGACACTGTTCTCTTGAAACAGTGTCAGGTTGTCTCGA
As to B2, the “sensitivity of shRNA infected cells to cisplatinum versus control cells” value in the data set on T3M4 cells [2] was “significantly more sensitive than control cells”. Also, in the data set with 14-3-3σ, the 14-3-3σ levels result is listed as “reduce”. The “basal motility of shRNA infected cells” value in the data set on T3M4 cells [1] stood at 20%.

B3: sh2: lentiviral shRNA targeting 14-3-3σ, SEQ ID NO: 26 (sense) and 27 (antisense) (nucleic acid)
sense: TGGAGAGAGCCAGTCTGATCTTCAAGAGAGATCAGACTGGCTCTCTCCTTTTTTC
antisense: TCGAGAAAAAAGGAGAGAGCCAGTCTGATCTCTCTTGAAGATCAGACTGGCTCTCTCCA
In the case of B3, in the data set on T3M4 cells [2], the “sensitivity of sh2 infected cells to cisplatinum compared to sh1” value is “relatively more sensitive” and the “sensitivity of shRNA infected cells to cisplatinum versus control cells” value is on record as “significantly more sensitive than control cells”. In addition, in the data set on 14-3-3σ, the “knockdown of 14-3-3σ, sh2 relative to sh1” value was “more effective than sh1” and the 14-3-3σ levels entry is on record as “reduce”. Moreover, the “basal motility of shRNA infected cells” value with T3M4 cells [1] is 20%.
